Consider 2 molecules from article PMC9555685, “A single transcription factor facilitates an insect host combating Bacillus thuringiensis infection while maintaining fitness”.

What all share (conditions): protein: recombinant; tags: N-terminal His; label: 5'-biotin
For data set [1], the target named is T1, FTZ-F1 T288D(P) (phosphomimic) (Plutella xylostella, UniProt A0ABQ7R810 1-557, T288D). Briefly: EMSA; 20 fmol probe; EMSA: 25 °C, 30 min, 20 fmol biotin probe, LightShift Chemiluminescent EMSA Kit; buffer, salt and pH not stated. A general note: In EMSA bound probe runs differently from free probe, usually more slowly.
T1 sequence (A0ABQ7R810 entry or part of it T288D | T288D T288D): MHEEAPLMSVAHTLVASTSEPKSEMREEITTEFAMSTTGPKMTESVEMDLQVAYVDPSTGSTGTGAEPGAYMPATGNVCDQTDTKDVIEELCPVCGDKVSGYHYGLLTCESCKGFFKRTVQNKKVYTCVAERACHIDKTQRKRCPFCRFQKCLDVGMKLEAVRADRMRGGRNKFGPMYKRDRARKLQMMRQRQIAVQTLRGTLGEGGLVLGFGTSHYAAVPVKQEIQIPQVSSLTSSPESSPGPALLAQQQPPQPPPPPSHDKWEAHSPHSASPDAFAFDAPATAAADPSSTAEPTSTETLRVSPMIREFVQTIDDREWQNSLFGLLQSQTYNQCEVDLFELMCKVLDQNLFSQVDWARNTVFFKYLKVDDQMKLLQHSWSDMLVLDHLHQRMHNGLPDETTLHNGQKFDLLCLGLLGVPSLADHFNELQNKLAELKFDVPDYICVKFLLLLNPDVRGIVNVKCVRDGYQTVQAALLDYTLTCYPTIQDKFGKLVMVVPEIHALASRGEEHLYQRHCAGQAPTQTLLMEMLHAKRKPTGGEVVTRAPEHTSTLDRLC
The target of data set [2] is T2, FTZ-F1 T288A(-P) (non-phosphorylated form) (Plutella xylostella, UniProt A0ABQ7R810 1-557, T288A). Briefly: EMSA; 20 fmol probe; cold competitor 100 and 500 fmol; EMSA: 25 °C, 30 min, 20 fmol biotin probe, LightShift Chemiluminescent EMSA Kit; buffer, salt and pH not stated.
T2 sequence (A0ABQ7R810 entry or part of it T288A | T288A T288A): as the sequence (A0ABQ7R810 entry or part of it T288D | T288D T288D) above, with D288A counted along it
Data set [3] has as its target T2, FTZ-F1 T288A(-P) (non-phosphorylated …). Briefly: EMSA; 20 fmol probe; EMSA: 25 °C, 30 min, 20 fmol biotin probe, LightShift Chemiluminescent EMSA Kit; buffer, salt and pH not stated.
The target of data set [4] is T1, FTZ-F1 T288D(P) (phosphomimic). Briefly: EMSA; 20 fmol probe; cold competitor 100 and 500 fmol; EMSA: 25 °C, 30 min, 20 fmol biotin probe, LightShift Chemiluminescent EMSA Kit; buffer, salt and pH not stated.

B1: FBS (ABCC2 promoter) (dsDNA)
DNA 1: CTGTCCTGTAA
DNA 2: TTACAGGACAG
As to B1, the binding result in data set [1] is recorded as “no binding”; in data set [2], “binds”.

B2: FBSP (ABCC1 promoter) (dsDNA)
DNA 1: GTACAGTCAC
DNA 2: GTGACTGTAC
On to B2, for which the results for the binding result in data set [3] and in data set [4] were “no binding” and “binds”, respectively.
